According to patent publication US20180021429A1, “ANTICANCER AGENTS OR ANTIMETASTATIC AGENTS USING FSTL1 AND COMBINATION DRUG THEREOF” (PHARMA FOODS INTERNATIONAL CO., LTD., priority 2015, published 2018):
Entries after “also recorded” stand apart in the source; their conditions may differ.

T1: FSTL1 (Homo sapiens, UniProt Q12841)
T1 sequence (Q12841 21-308): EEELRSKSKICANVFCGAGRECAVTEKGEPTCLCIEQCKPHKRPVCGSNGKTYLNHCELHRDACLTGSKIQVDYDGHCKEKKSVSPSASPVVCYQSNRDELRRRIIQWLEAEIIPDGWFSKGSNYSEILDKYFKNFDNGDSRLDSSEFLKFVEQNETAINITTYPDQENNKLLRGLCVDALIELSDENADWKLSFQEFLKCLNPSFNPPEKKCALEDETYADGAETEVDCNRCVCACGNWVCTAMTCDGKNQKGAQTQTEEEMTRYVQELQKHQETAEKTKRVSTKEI


Tests used:
FSTL1 = target: T1, FSTL1; assay: Inhibition of MSC induction by FSTL1 in mouse bone marrow cells, CD45-negative cells (Examples 6, 8, 12); format: cell-based; parameters: purchased R&D Systems, Inc. 1694-FN-050; conditions: antibody 10 μg/mL
Procedure: Mouse bone marrow cells prepared in the same way as in Example 4 were supplemented with 50 ng/mL (final concentration) of FSTL1 and 10 μg/mL of the anti-FSTL1 antibody (#5-2, #5-3, #5-8, #5-10, 45-43, #6-55, or #7-34) or a control antibody anti-DNP antibody and cultured under stimulation. 11 days thereafter, the number of cells was counted while the cells were stained with a PE-Cy5-labeled anti-CD45 antibody (BD Pharmingen/Becton, Dickinson and Company, Cat. No. 555484), and the content of CD45− negative cells reported to generally contain MSCs at a high rate was analyzed by flow cytometry using FACScan to calculate the percentage and number of MSCs per culture (FIG. 67A).
(§1) Mouse bone marrow cells prepared in the same way as in Example 4 were supplemented with 20 ng/mL (final concentration) of FSTL1 and 10 μg/mL of the anti-FSTL1 antibody (#5-2, #5-3, #5-8, #5-10, #5-43, #6-55, #8-1, #8-4, #8-7, and #8-8) or a control antibody anti-DNP antibody and cultured under stimulation. 8 days thereafter, the number of cells was counted while the cells were stained with a PE-Cy5-labeled anti-CD45 antibody, and the content of CD45− negative cells was analyzed by flow cytometry using FACScan to calculate the percentage and number of MSCs per culture (FIG. 68A).
as §1, with “(#5-2,” for “(#5-2, #5-3,”, “#5-8,” for “#5-8, #5-10, #5-43,”, “#6-55, #7-34,” for “#6-55,”, “#8-7, or” for “#8-7, and”, “(FIG. 69).” for “(FIG. 68A).”

[1] = system: human pancreatic cancer cell line Panc1; assay: Inhibitory activity against activation of tumor cell by FSTL1, RANKL-/CCR2-positive cells (Examples 5, 7, 9-11); format: cell-based
Procedure: It is known that tumor cells activated by stimulation with FSTL1 highly express molecule groups promoting bone metastasis and increase metastatic invasive capacity (Cancer Research 73: 6185, 2013). Thus, […] cells/well of a human pancreatic cancer cell line Panc1 were suspended in 1 mL/well of D-MEM medium (GIBCO/Thermo Fisher Scientific Inc. Cat. No. C11885500BT) containing 10% fetal bovine serum, supplemented with 50 ng/mL (final concentration) of FSTL1 (R&D Systems, Inc.) and 10 μg/mL of the anti-FSTL1 antibody (#5-2, #5-8, #5-10, #5-43, #6-55, or #7-34) or its isotype mouse IgG (anti-DNP antibody) as a control antibody “Control”, and cultured under stimulation (6-well plate). 3 days thereafter, the number of cells was counted while the cells were stained with a PE-labeled anti-RANKL antibody (eBioscience Cat. No. 12-6619) and a PE-labeled anti-CCR2 antibody (R&D Systems, Inc. Cat. No. FAB151P) in order to examine the expression of markers indicating bone metastatic properties, and the contents of RANKL-positive cells and CCR2-positive cells were analyzed by flow cytometry using FACScan (Becton, Dickinson and Company) to calculate the numbers of cells per culture. […] Therefore, in Examples below, judgment was made with the number of cells as an index.
In the same way as in Example 5, a human pancreatic cancer cell line Panc1 was supplemented with 50 ng/mL (final concentration) of FSTL1 (R&D Systems, Inc.) and 10 μg/mL of the anti-FSTL1 antibody (the same clones as in Example 6) or a control antibody and cultured under stimulation.
3 days thereafter, the number of cells was counted while the cells were stained with a PE-labeled anti-RANKL antibody and a PE-labeled anti-CCR2 antibody, and the contents of RANKL-positive cells and CCR2-positive cells were analyzed by flow cytometry using FACScan (Becton, Dickinson and Company) to calculate the numbers of cells per culture (FIG. 5B).
(§2) In the same way as in Example 5, a human pancreatic cancer cell line Panc1 was supplemented with 20 ng/mL (final concentration) of FSTL1 and 10 μg/mL of the anti-FSTL1 antibody (#5-2, #5-8, or #6-55) or a control antibody and cultured under stimulation. 3 days thereafter, the number of cells was counted while the cells were stained with a PE-labeled anti-RANKL antibody and a PE-labeled anti-CCR2 antibody, and the contents of RANKL-positive cells and CCR2-positive cells were analyzed by flow cytometry using FACScan (Becton, Dickinson and Company) to calculate the numbers of cells per culture (FIG. 6B).
as §2, with “50” for “20”, “#5-3, #6-55, #7-34, #8-1, #8-4, #8-7,” for “#5-8,”, “#8-8)” for “#6-55)”, “culture.” for “culture (FIG. 6B).”
as §2, with “50” for “20”, “(#6-55)” for “(#5-2, #5-8, or #6-55)”, “culture.” for “culture (FIG. 6B).”
It is known that tumor cells activated by stimulation with FSTL1 highly express molecule groups promoting bone metastasis and increase metastatic invasive capacity (Cancer Research 73: 6185, 2013). […]

[2] = Example 6, FSTL1 50 ng/mL, 11 days
[3] = Example 8, FSTL1 20 ng/mL, 8 days
[4] = Example 12, FSTL1 20 ng/mL, 8 days

Molecule	inhibitory activity against the expansion of CD45-negative cells by FSTL1 (FSTL1; [2])	inhibitory activity against the expansion of CD45-negative cells by FSTL1 (FSTL1; [3])	inhibitory activity against the expansion of CD45-negative cells by FSTL1 (FSTL1; [4])	other results
#5-43: chicken-mouse chimeric anti-FSTL1 antibody clone; variable regions SEQ ID NO: 779 (light), 781 (heavy) (antibody, V domains shown, mouse constant regions) VH: AVTLDESGGGLQTPGGGLSLVCKGSGFTFSSFNMFWVRQAPGKGLEWVAGIGKDGGTGYGAAVDGRATISKDSGQSTLRLQLNNLRAEDTGTYYCAKAAGGCSYDWCGAYTGDIDTWGHGTEVIVSS VL: ASTQPSSVSANPGEAVKITCSGGSGSYYGWYQQKSPGSAPVTVIYNNNQRPSDIPSRFSGSKSGSTATLTITGVQAEDEAVYFCGGYDSSTGHGGIFGAGTTLTVL	higher inhibitory activity and substantially completely inhibited the action of FSTL1	Inhibitory activity was confirmed; also recorded: exhibited inhibitory activity		
#6-55: chicken-mouse chimeric anti-FSTL1 antibody clone; variable regions SEQ ID NO: 783 (light), 785 (heavy) (antibody, V domains shown, mouse constant regions) VH: AVTLDESGGGLQTPGGALSLVCKGSGFTFTSVTMQWVRQAPGKGLEWVASVCSGSSTYYAPAVKGRATISRDNGQSTVRLQLSNLRPEDTGTYYCAKIAGRARWSCTSAAYNIDAWGHGTEVIVSS VL: ASTQPSSVSAIPGETVKITCSGGGNNYGWYQQRSPGSAPVTVIYYNDNRPSNIPSRFSGSTSGSTSTLTITGVQADDEAIYYCGSWDSNTDSGIFGAGTTLTVL		Inhibitory activity was confirmed; also recorded: exhibited inhibitory activity	higher inhibitory activity was confirmed in the order of #7-34, #5-2, #6-55, and #8-7	inhibitory activity against the expansion of RANKL-positive cells and CCR2-positive cells ([1]; Example 9, FIG. 6B/36B, FSTL1 20 ng/mL, antibody 10 μg/mL, 3 days): exhibited inhibitory activity against the expansion of RANKL-positive cells and CCR2-positive cells; also recorded: higher inhibitory activity; inhibitory activity against the expansion of RANKL-positive cells and CCR2-positive cells ([1]; Example 10, FIG. 6C/36C, FSTL1 50 ng/mL, antibody 10 μg/mL, 3 days): high inhibitory activity; also recorded: higher inhibitory activity; dose dependence of the antibody ([1]; Example 11, FIG. 6D/36D, 5, 10, 20 μg/mL): the dose dependence of antibody was not confirmed; also recorded: the dose dependence of the antibody was not confirmed; inhibitory activity against the expansion of RANKL-positive cells and CCR2-positive cells ([1]; Example 11, FIG. 6D/36D, FSTL1 50 ng/mL, at all tested doses 5, 10 and 20 μg/mL): ~100%; inhibition of cell induction of RANKL-positive cells and CCR2-positive cells ([1]; Example 11, FIG. 6D/36D, dose dependence test): exhibited inhibitory activity; also recorded: strongly inhibited the cell induction of both RANKL-positive cells and CCR2-positive cells at the same time
#7-34: chicken-mouse chimeric anti-FSTL1 antibody clone; variable regions SEQ ID NO: 787 (light), 789 (heavy) (antibody, V domains shown, mouse constant regions) VH: AVTLDESGGGLQTPGGGLSLVCKASGFTFSSVTMQWVRQAPGKGLEWVASICSGSSTYYGPAVKGRATISRDNGQNTVRLQLNNLRAEDTATYYCAKIVGRGRWSCTSAAYNIDAWGHGTEVIVSS VL: ASTQPSSVSANPGETVKITCSGGGNNYGWYQQKSPGSAPVTVIYYNNNRPSNIPSRFSGSTSGSTSTLTITGVQAEDEAVYYCGSYEGSTDSGIFGAGTTLTVL	higher inhibitory activity and substantially completely inhibited the action of FSTL1		stronger inhibitory activity was confirmed in the order of clone #7-34, #5-2, 46-55, and #8-7; also recorded: higher inhibitory activity was confirmed in the order of #7-34, #5-2, #6-55, and #8-7; also recorded: stronger inhibitory activity was confirmed in the order of clone #7-34, #5-2, 96-55, and #8-7	
#5-3: chicken-mouse chimeric anti-FSTL1 antibody clone; variable regions SEQ ID NO: 767 (light), 769 (heavy) (antibody, V domains shown, mouse constant regions) VH: AVTLDESGGGLQTPGGALSLVCKGSGFSFSSFNMFWVRQAPGKGLEWVAGIGKDGVPKYGAAVDGRATISKDNGQSTMRLQLNNLRAEDTGTYFCAKAAGGCSYDWCGIYAGDIDTWGHGTEVIVSS VL: ASTQPSSVSANPGETVKITCSGGSGYYYGWYQQKSPGSVPVTVIYNNNNRPSDIPSRFSGSKSGSTGTLTITGVRAEDEAVYYCGGYDNSGTGIFGAGTTLTVL	higher inhibitory activity and substantially completely inhibited the action of FSTL1			inhibitory activity against the expansion of RANKL-positive cells and CCR2-positive cells ([1]; Example 7, FIG. 5B/35B, FSTL1 50 ng/mL, antibody 10 μg/mL, 3 days): higher inhibitory activity
#8-1: chicken-mouse chimeric anti-FSTL1 antibody clone; variable regions SEQ ID NO: 791 (light), 793 (heavy) (antibody, V domains shown, mouse constant regions) VH: AVTLDESGGGLQTPGGALSLVCKGSGFTFSSFNMFWVRQAPGKGLEWVAGIGKDGVPKYGAAVDGRATISKDNGQSTMRLQLNNLRAEDTGTYFCAKAAGGCSYDWCGIYAGDIDTWGHGTEVIVSS VL: ASTQPSSVSANPGEAVKITCSGGSGSYYGWYQQKSPGSAPVTVIYNNNQRPSDIPSRFSGSKSGSTATLTITGVQAEDEAVYFCGGYDSSSGHGGIFGAGTTLTVL		Inhibitory activity was confirmed; also recorded: exhibited inhibitory activity		
